What all share (assay): fluorescence polarisation
(Polarisation of emitted light reports the rotation of a fluorescent probe.)

In assay [1] the target is FITC-labelled C-terminal peptide of ACE2 (FITC-…-COO-) (human).
In assay [2] the target is FITC-labelled ACE2 peptide with the predicted PTB binding motif (FITC-…-NH2) (human).
Assay [3] has as its target AP2 μ2 (human unless Table 5 states otherwise (cells not shown)).
In the next assay the target is T1, SHANK1 PDZ (human unless Table 5 states otherwise …, UniProt Q9Y566 663-757).
T1 sequence: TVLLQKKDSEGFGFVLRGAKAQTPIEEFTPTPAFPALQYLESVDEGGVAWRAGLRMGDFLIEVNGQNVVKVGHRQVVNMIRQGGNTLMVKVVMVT

The star is where a group is joined. FITC = O=C1OC2(c3ccc(O)cc3Oc3cc(O)ccc32)c2ccc(NC(=S)*)cc21

With NHERF3 PDZ1 (domain or fragment), the dissociation constant Kd in assay [1] amounted to 8 µM. As for SNX17 FERM domain (domain or fragment), the Kd in assay [2] is 200 to 300 µM. Take “unphosphorylated ACE2 peptide (cytoplasmic tail region with the predicted AP2 μ2, NCK SH2 and ATG8 binding motifs)”: the Ki in assay [3] came out at 101 µM.

B1: FITC-labelled C-terminal peptide of ACE2 (FITC-QNTDDVQTSF-COO-) (peptide)
peptide: {FITC}-QNTDDVQTSF-OH
In the assay with SHANK1 PDZ, B1 yielded a Kd of 14 µM.

A word on the Kd: it is a measure of binding affinity in units of concentration. Usually Ki stands for a dissociation constant, usually derived from enzyme kinetics or from competition with a known ligand.
